Laboratory results from PMC11719512, “Exploring the Binding Mechanism of ADGRG2 Through Metadynamics and Biochemical Analysis” (International Journal of Molecular Sciences, 2024).

T1: VPM-F601E, Q8CJ12
T1 chain: TSEGILLDLSRTSLP

T2: VPM-F601D, Q8CJ12
T2 chain: TSDGILLDLSRTSLP


Columns and labels:
[1] = test system: ADGRG2; conditions: steroid hormones; endogenous; ref [23]; cited from earlier work
Source text: Stachel (sequence: TSFGILLDLSRTSLP, with individual residues numbered from ss01 to ss15, where “ss” denotes Stachel sequence) is a key functional element of ADGRG2, playing a critical role in regulating the conformation and function of the receptor [8]. The Stachel sequence plays a pivotal role in receptor activation by mediating ligand binding and initiating the conformational changes required for signal transduction, highlighting its biological significance. In previous studies, the wild-type ADGRG2 Stachel sequence-derived peptidic agonist, VPM, was found t ... || Figure 1 Structural and binding analysis of ADGRG2 with agonists and antagonists. (A) Structure of ADGRG2, highlighting key domains involved in ligand binding. Identified agonists (DHEA, DHEAS, IP15) and antagonists (DOC, F601D, F601E) are labeled. […] (B) Schematic representation of metadynamics simulations and ligand binding assay conducted to investigate the binding mechanisms of antagonists F601D, F601E, and DOC to ADGRG2. (C) Structural representation of ADGRG2 in complex wi ...

[2] = test system: ADGRG2 (Nluc-ADGRG2 and its alanine mutants); test: FlAsh-BRET / BRET-based ligand binding assay with ADGRG2 mutants; conditions: HEK293, competition with 50 μM IP15–FITC, 10^−9 to 10^−4 M competitor, HBSS, 40 min at 37 °C; mean ± SEM, n = 3
Method: HEK293 cells were transiently transfected with plasmids for Nluc-ADGRG2 and its various mutants (ADGRG2-T624A, ADGRG2-C628A, ADGRG2-N668A, ADGRG2-Y758A, ADGRG2-K760A, ADGRG2-D768A, ADGRG2-N773A, ADGRG2-N775A, ADGRG2-N849A, ADGRG2-N860A). The cells were plated at a density of 3 × 10^4 per well in a black 96-well plate and cultured for 48 h at 37 °C with 5% CO2. To assess saturation binding, increasing concentrations of FITC-labeled IP15 (IP15–FITC) were added, alongside or without 300 μM of unlabeled IP15, for a 40-min incubation at 37 °C. For competitive binding assays, cells were treated with 50 μM IP15–FITC and varying concentrations (10^−9 to 10^−4 M) of competing peptides in HBSS buffer (containing 25 mM HEPES, 10 mM glucose, 146 mM NaCl, 5 mM KCl, 1 mM MgSO4, 2 mM sodium pyruvate, and 1.3 mM CaCl2) for 40 min at 37 °C. Coelenterazine H (final concentration of 5 μM, Promega) was added just before measuring BRET signals using a Mithras LB 940 Multimode Microplate Reader. Light emissions were recorded at 460 nm (80 nm bandpass) and 535 nm (60 nm bandpass) for IP15–FITC, and the raw BRET ratio was calculated as the 535 nm emission divided by the 460 nm emission.

[3] = biological target: DOC; test: BRET-based binding assay; conditions: parent: est. -7.3; read off a plot
[4] = biological target: T1, VPM-F601E, Q8CJ12; test: BRET-based binding assay; conditions: chain shown with the change;, read off a plot
[5] = biological target: T2, VPM-F601D, Q8CJ12; test: BRET-based binding assay; conditions: chain shown with the change;; parent: est. -8.0; read off a plot

Molecule	activity on ADGRG2 (agonist or antagonist) [1]	IC50 [5]	further results
deoxycorticosterone [DOC]	endogenous antagonist	–	binding to ADGRG2 with mutated polar residues (C628, N668, K760, D768, N860) [2]: significantly weakened DOC’s ability to bind to ADGRG2
C[C@]12CC[C@H](O)CC1=CC[C@@H]1[C@@H]2CC[C@]2(C)C(=O)CC[C@@H]12 [DHEA, dehydroepiandrosterone]	endogenous agonists	–	–
C[C@]12CC[C@H](OS(=O)(=O)O)CC1=CC[C@@H]1[C@@H]2CC[C@]2(C)C(=O)CC[C@@H]12 [DHEAS]	endogenous agonists	–	–
Nluc-ADGRG2 (wild type) (from UniProt Q8CJ12) D768A	–	–	IC50 [3]: -5.9 log10(M)
Nluc-ADGRG2 (wild type) (from UniProt Q8CJ12) K760A	–	–	IC50 [3]: -5.6 log10(M)
Nluc-ADGRG2 (wild type), Q8CJ12 Y758A (protein) LKENGNSSLLSPSAESSLVSLIPYSNGTPDAASEVLSTLNKTEKSKITIVKTFNASGVKSQRNICNLSSLCNDSVFFRGEIVFQHDEDHNVTQNQDTANGTFAGVLSLSELKRSELNKTLQTLSETYFIVCATAEAQSTVNCTFTVKLNETMNVCAMMVTFQTVQIRPMEQCCCSPRTPCPSSPEELEKLQCELQDPIVCLADQPHGPPLSSSSKPVVPQATIISHVASDFSLAEPLDHALMTPSTPSLTQESNLPSPQPTIPLASSPATDLPVQSVVVSSLPQTDLSHTLSPVQSSIPSPTTPAPSVPTELVTISTPPGETVVNTSTVSDLEAQVSQMEKALSLGSLEPNLAGEMVNRVSKLLHSPPALLAPLAQRLLKVVDAIGLQLNFSSTTISLTSPSLALAVIRVNASNFNTTTFAAQDPTNLQVSLETPPPENSIGAITLPSSLMNNLPANDVELASRIQFNFFETPALFQDPSLENLTLISYVISSSVTNMTIKNLTRNVTVALKHINPSPDDLTVKCVFWDLGRNGGKGGWSSDGCSVKDKRMNETICTCSHLTSFGILLDLSRTSLPPSQMMALTFITYIGCGLSSIFLSVTLVTYIAFEKIRRDYPSKILIQLCAALLLLNLIFLLDSWIALYNTRGFCIAVAVFLHYFLLVSFTWMGLEAFHMYLALVKVFNTYIRKYILKFCIVGWGIPAVVVSIVLTISPDNYGIGSAGKFPNGTPDDFCWINSNVVFYITVVGYFCVIFLLNVSMFIVVLVQLCRIKKKKQLGAQRKTSIQDLRSIAGLTFLLGITWGFAFFAWGPVNVTFMYLFAIFNTLQGFFIFIFYCAAKENVRKQWRRYLCCGKL	–	–	IC50 ([4]; parent: est. -8.5): -7.1 log10(M)
Nluc-ADGRG2 (wild type), Q8CJ12 K760A (protein) LKENGNSSLLSPSAESSLVSLIPYSNGTPDAASEVLSTLNKTEKSKITIVKTFNASGVKSQRNICNLSSLCNDSVFFRGEIVFQHDEDHNVTQNQDTANGTFAGVLSLSELKRSELNKTLQTLSETYFIVCATAEAQSTVNCTFTVKLNETMNVCAMMVTFQTVQIRPMEQCCCSPRTPCPSSPEELEKLQCELQDPIVCLADQPHGPPLSSSSKPVVPQATIISHVASDFSLAEPLDHALMTPSTPSLTQESNLPSPQPTIPLASSPATDLPVQSVVVSSLPQTDLSHTLSPVQSSIPSPTTPAPSVPTELVTISTPPGETVVNTSTVSDLEAQVSQMEKALSLGSLEPNLAGEMVNRVSKLLHSPPALLAPLAQRLLKVVDAIGLQLNFSSTTISLTSPSLALAVIRVNASNFNTTTFAAQDPTNLQVSLETPPPENSIGAITLPSSLMNNLPANDVELASRIQFNFFETPALFQDPSLENLTLISYVISSSVTNMTIKNLTRNVTVALKHINPSPDDLTVKCVFWDLGRNGGKGGWSSDGCSVKDKRMNETICTCSHLTSFGILLDLSRTSLPPSQMMALTFITYIGCGLSSIFLSVTLVTYIAFEKIRRDYPSKILIQLCAALLLLNLIFLLDSWIALYNTRGFCIAVAVFLHYFLLVSFTWMGLEAFHMYLALVKVFNTYIRKYILKFCIVGWGIPAVVVSIVLTISPDNYGIGSYGAFPNGTPDDFCWINSNVVFYITVVGYFCVIFLLNVSMFIVVLVQLCRIKKKKQLGAQRKTSIQDLRSIAGLTFLLGITWGFAFFAWGPVNVTFMYLFAIFNTLQGFFIFIFYCAAKENVRKQWRRYLCCGKL	–	-7.7 log10(M)	IC50 ([4]; parent: est. -8.5): -7 log10(M)
Nluc-ADGRG2 (wild type), Q8CJ12 N775A (protein) LKENGNSSLLSPSAESSLVSLIPYSNGTPDAASEVLSTLNKTEKSKITIVKTFNASGVKSQRNICNLSSLCNDSVFFRGEIVFQHDEDHNVTQNQDTANGTFAGVLSLSELKRSELNKTLQTLSETYFIVCATAEAQSTVNCTFTVKLNETMNVCAMMVTFQTVQIRPMEQCCCSPRTPCPSSPEELEKLQCELQDPIVCLADQPHGPPLSSSSKPVVPQATIISHVASDFSLAEPLDHALMTPSTPSLTQESNLPSPQPTIPLASSPATDLPVQSVVVSSLPQTDLSHTLSPVQSSIPSPTTPAPSVPTELVTISTPPGETVVNTSTVSDLEAQVSQMEKALSLGSLEPNLAGEMVNRVSKLLHSPPALLAPLAQRLLKVVDAIGLQLNFSSTTISLTSPSLALAVIRVNASNFNTTTFAAQDPTNLQVSLETPPPENSIGAITLPSSLMNNLPANDVELASRIQFNFFETPALFQDPSLENLTLISYVISSSVTNMTIKNLTRNVTVALKHINPSPDDLTVKCVFWDLGRNGGKGGWSSDGCSVKDKRMNETICTCSHLTSFGILLDLSRTSLPPSQMMALTFITYIGCGLSSIFLSVTLVTYIAFEKIRRDYPSKILIQLCAALLLLNLIFLLDSWIALYNTRGFCIAVAVFLHYFLLVSFTWMGLEAFHMYLALVKVFNTYIRKYILKFCIVGWGIPAVVVSIVLTISPDNYGIGSYGKFPNGTPDDFCWINSAVVFYITVVGYFCVIFLLNVSMFIVVLVQLCRIKKKKQLGAQRKTSIQDLRSIAGLTFLLGITWGFAFFAWGPVNVTFMYLFAIFNTLQGFFIFIFYCAAKENVRKQWRRYLCCGKL	–	-7.6 log10(M)	IC50 ([4]; parent: est. -8.1): -5.4 log10(M)
Nluc-ADGRG2 (wild type), Q8CJ12 N773A (protein) LKENGNSSLLSPSAESSLVSLIPYSNGTPDAASEVLSTLNKTEKSKITIVKTFNASGVKSQRNICNLSSLCNDSVFFRGEIVFQHDEDHNVTQNQDTANGTFAGVLSLSELKRSELNKTLQTLSETYFIVCATAEAQSTVNCTFTVKLNETMNVCAMMVTFQTVQIRPMEQCCCSPRTPCPSSPEELEKLQCELQDPIVCLADQPHGPPLSSSSKPVVPQATIISHVASDFSLAEPLDHALMTPSTPSLTQESNLPSPQPTIPLASSPATDLPVQSVVVSSLPQTDLSHTLSPVQSSIPSPTTPAPSVPTELVTISTPPGETVVNTSTVSDLEAQVSQMEKALSLGSLEPNLAGEMVNRVSKLLHSPPALLAPLAQRLLKVVDAIGLQLNFSSTTISLTSPSLALAVIRVNASNFNTTTFAAQDPTNLQVSLETPPPENSIGAITLPSSLMNNLPANDVELASRIQFNFFETPALFQDPSLENLTLISYVISSSVTNMTIKNLTRNVTVALKHINPSPDDLTVKCVFWDLGRNGGKGGWSSDGCSVKDKRMNETICTCSHLTSFGILLDLSRTSLPPSQMMALTFITYIGCGLSSIFLSVTLVTYIAFEKIRRDYPSKILIQLCAALLLLNLIFLLDSWIALYNTRGFCIAVAVFLHYFLLVSFTWMGLEAFHMYLALVKVFNTYIRKYILKFCIVGWGIPAVVVSIVLTISPDNYGIGSYGKFPNGTPDDFCWIASNVVFYITVVGYFCVIFLLNVSMFIVVLVQLCRIKKKKQLGAQRKTSIQDLRSIAGLTFLLGITWGFAFFAWGPVNVTFMYLFAIFNTLQGFFIFIFYCAAKENVRKQWRRYLCCGKL	–	-6.2 log10(M)	–
Nluc-ADGRG2 (wild type), Q8CJ12 N849A (protein) LKENGNSSLLSPSAESSLVSLIPYSNGTPDAASEVLSTLNKTEKSKITIVKTFNASGVKSQRNICNLSSLCNDSVFFRGEIVFQHDEDHNVTQNQDTANGTFAGVLSLSELKRSELNKTLQTLSETYFIVCATAEAQSTVNCTFTVKLNETMNVCAMMVTFQTVQIRPMEQCCCSPRTPCPSSPEELEKLQCELQDPIVCLADQPHGPPLSSSSKPVVPQATIISHVASDFSLAEPLDHALMTPSTPSLTQESNLPSPQPTIPLASSPATDLPVQSVVVSSLPQTDLSHTLSPVQSSIPSPTTPAPSVPTELVTISTPPGETVVNTSTVSDLEAQVSQMEKALSLGSLEPNLAGEMVNRVSKLLHSPPALLAPLAQRLLKVVDAIGLQLNFSSTTISLTSPSLALAVIRVNASNFNTTTFAAQDPTNLQVSLETPPPENSIGAITLPSSLMNNLPANDVELASRIQFNFFETPALFQDPSLENLTLISYVISSSVTNMTIKNLTRNVTVALKHINPSPDDLTVKCVFWDLGRNGGKGGWSSDGCSVKDKRMNETICTCSHLTSFGILLDLSRTSLPPSQMMALTFITYIGCGLSSIFLSVTLVTYIAFEKIRRDYPSKILIQLCAALLLLNLIFLLDSWIALYNTRGFCIAVAVFLHYFLLVSFTWMGLEAFHMYLALVKVFNTYIRKYILKFCIVGWGIPAVVVSIVLTISPDNYGIGSYGKFPNGTPDDFCWINSNVVFYITVVGYFCVIFLLNVSMFIVVLVQLCRIKKKKQLGAQRKTSIQDLRSIAGLTFLLGITWGFAFFAWGPVAVTFMYLFAIFNTLQGFFIFIFYCAAKENVRKQWRRYLCCGKL	–	-7.9 log10(M)	–
